These results are taken from article PMC3696110, “Hsp70 Oligomerization Is Mediated by an Interaction between the Interdomain Linker and the Substrate-Binding Domain” (PLoS ONE, 2013).

For series [1], the target named is FL-Hsp70 2LD, full-length human Hsp70 with Leu395 and Leu397 substituted by aspartic residues (human) (UniProt P0DMV8). The series can be described thus: SEC; analytical SEC, Superdex 75 10/300 GL, 4 °C; 220 µM protein.
Series [2] has as its system P0DMV8. The series can be described thus: SEC; analytical SEC, Superdex 75 10/300 GL, 4 °C, 50 mM Tris pH 7.4, 150 mM KCl, 5 mM MgCl2; 70 µM protein. (In general: SEC sorts molecules by how far they enter the pores of the column.)
Series [3] has as its system P0DMV8. The experiment in a line: native MS; nESI-MS, 150 mM ammonium acetate pH 7.4, protein 6 µM (6-15 µM); abundances from the most abundant charge states.
Series [4] has as its system P0DMV8. The series can be described thus: SEC; analytical SEC, Superdex 75 10/300 GL, 4 °C, 50 mM Tris pH 7.4, 150 mM KCl, 5 mM MgCl2; 6 µM protein.
The target of series [5] is SBD556 (384-556) of human Hsp70 with the L542Y mutation (human) (UniProt P0DMV8). The series can be described thus: SEC; analytical SEC, Superdex 75 10/300 GL, 4 °C, 50 mM Tris pH 7.4, 150 mM KCl, 5 mM MgCl2; 70 µM protein.
Series [6] has the same target. The experiment in a line: native MS; nESI-MS, 150 mM ammonium acetate pH 7.4, protein 6 µM (6-15 µM); abundances from the most abundant charge states.
Series [7] has as its target dansyl-NR peptide (NRLLLTG, N-terminally labelled with dansyl). The experiment in a line: other fluorescence titration; chaperone titrated into 2 µM dansyl-NR peptide, 1 h at 25 °C, 50 mM Tris pH 7.4, 150 mM KCl, 5 mM MgCl2; single-site fit, apparent Kd.
In series [8] the target is SBD556 (384-556) of human Hsp70 with the L542Y mutation (human) (UniProt P0DMV8). The series can be described thus: SEC; analytical SEC, Superdex 75 10/300 GL, 4 °C, 50 mM Tris pH 7.4, 150 mM KCl, 5 mM MgCl2; 6 µM protein.
Series [9] relates to P0DMV8. The experiment in a line: SEC; analytical SEC of SBD641 refolded after thermal denaturation; protein concentration of this panel not stated.
Series [10] has as its system P0DMV8. The series can be described thus: SEC; analytical SEC after 1 h at room temperature with a 14-fold excess of NR peptide; protein concentration of this panel not stated.
Series [11] has as its target SBD641 (384-641), full-length substrate-binding domain of human Hsp70 with the interdomain linker (human) (UniProt P0DMV8). The experiment in a line: native MS; nESI-MS, 150 mM ammonium acetate pH 7.4, protein 6 µM (6-15 µM); abundances from the most abundant charge states.
The target is the same in series [12]. The series can be described thus: SEC; fraction of oligomeric species set beside DLS (Figure S3C), with 14-times excess of NR peptide; 20 µM SBD641 named for the panel.
Series [13] has the same target. The series can be described thus: SEC; fraction of oligomeric species set beside DLS (Figure S3C), without NR peptide; 20 µM protein named for the panel.
For series [14] the target is unchanged. The series can be described thus: native MS + SEC; oligomerization constant estimated from the populations of Table 1; equilibrium of monomer, dimer and trimer.
For series [15] the target is unchanged. The experiment in a line: SEC + other: dynamic light scattering; fraction of oligomers (SEC) and apparent hydrodynamic diameter (DLS) of SBD641 against protein concentration; extrapolation to 0.5 oligomer fraction.
Series [16] has the same target. The series can be described thus: SEC; analytical SEC, Superdex 75 10/300 GL, 4 °C, 50 mM Tris pH 7.4, 150 mM KCl, 5 mM MgCl2; 70 µM protein.
The target is the same in series [17]. The experiment in a line: native MS; nESI-MS, 150 mM ammonium acetate pH 7.4, protein 6 µM (6-15 µM); abundances from the most abundant charge states. The source holds these as a separate data set.
Series [18] has the same target. The experiment in a line: SEC; analytical SEC after 1 h at room temperature with a 14-fold excess of NR peptide; protein concentration of this panel not stated.
The target is the same in series [19]. The experiment in a line: SEC; analytical SEC, Superdex 75 10/300 GL, 4 °C, 50 mM Tris pH 7.4, 150 mM KCl, 5 mM MgCl2; 6 µM protein.
Series [20] concerns the target full-length human Hsp70 (Hsp70 1A) (human) (UniProt P0DMV8). The experiment in a line: SEC; analytical SEC, Superdex 75 10/300 GL, 4 °C; 220 µM protein.
The target is the same in series [21]. The series can be described thus: SEC; analytical SEC, Superdex 75 10/300 GL, 4 °C, 50 mM Tris pH 7.4, 150 mM KCl, 5 mM MgCl2; 70 µM protein.
For series [22] the target is unchanged. The experiment in a line: native MS; nESI-MS, 150 mM ammonium acetate pH 7.4, protein 6 µM (6-15 µM); abundances from the most abundant charge states.
Series [23] shares this target. The series can be described thus: SEC; analytical SEC, Superdex 75 10/300 GL, 4 °C, 50 mM Tris pH 7.4, 150 mM KCl, 5 mM MgCl2; 6 µM protein.
In series [24] the target is ΔLSBD641 (394-641), SBD641 of human Hsp70 without the first ten residues of the interdomain linker (human) (UniProt P0DMV8). The series can be described thus: SEC; fraction of oligomeric species set beside DLS (Figure S3C), without NR peptide; 20 µM protein named for the panel.
For series [25] the target is unchanged. The experiment in a line: SEC; analytical SEC, Superdex 75 10/300 GL, 4 °C, 50 mM Tris pH 7.4, 150 mM KCl, 5 mM MgCl2; 70 µM protein.
For series [26] the target is unchanged. The series can be described thus: native MS; nESI-MS, 150 mM ammonium acetate pH 7.4, protein 6 µM (6-15 µM); abundances from the most abundant charge states.
For series [27] the target is unchanged. The experiment in a line: SEC; analytical SEC, Superdex 75 10/300 GL, 4 °C, 50 mM Tris pH 7.4, 150 mM KCl, 5 mM MgCl2; 6 µM protein.

Where two headings read alike, the source gives them in different places.

Sequence of FL-Hsp70 2LD, full-length human Hsp70 with Leu395 and Leu397 substituted by aspartic residues (P0DMV8 whole entry): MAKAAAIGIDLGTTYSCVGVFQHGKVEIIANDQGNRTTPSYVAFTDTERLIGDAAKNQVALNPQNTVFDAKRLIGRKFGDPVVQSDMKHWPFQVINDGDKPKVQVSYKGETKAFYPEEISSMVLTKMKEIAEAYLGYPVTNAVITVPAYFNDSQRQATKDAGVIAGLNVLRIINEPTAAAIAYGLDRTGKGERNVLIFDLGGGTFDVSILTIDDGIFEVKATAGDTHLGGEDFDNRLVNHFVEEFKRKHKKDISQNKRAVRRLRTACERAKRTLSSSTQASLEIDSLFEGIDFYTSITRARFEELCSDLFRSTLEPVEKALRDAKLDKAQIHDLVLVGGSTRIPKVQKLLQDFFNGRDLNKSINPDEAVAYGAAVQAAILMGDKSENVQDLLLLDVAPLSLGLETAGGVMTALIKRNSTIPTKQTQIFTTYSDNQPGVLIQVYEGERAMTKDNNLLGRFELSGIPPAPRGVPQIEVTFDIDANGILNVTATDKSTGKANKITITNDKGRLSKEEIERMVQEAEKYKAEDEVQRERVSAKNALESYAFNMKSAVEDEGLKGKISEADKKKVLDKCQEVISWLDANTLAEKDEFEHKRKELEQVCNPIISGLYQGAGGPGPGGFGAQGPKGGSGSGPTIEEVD

Substance “FL-Hsp70 2LD, full-length human Hsp70 with Leu395 and Leu397 substituted by aspartic residues (from UniProt P0DMV8 1-641) (natural protein)” had a % oligomeric species in series [1] below 9%.

Take “SBD556 (384-556) of human Hsp70 with the L542Y mutation”: the figures for the % monomer with P0DMV8 [2], in the series with P0DMV8 [3] and with P0DMV8 [4] were 93%, 82% and 97%, respectively.

With “SBD556 (384-556) of human Hsp70 with the L542Y mutation (from UniProt P0DMV8 384-556) (domain or fragment)”, the figures for the % dimer in [5], in series [6] and in series [8] were 7%, 16% and 3%, respectively. The % total oligomers in series [5] was determined as 7%; in [6], 18%; in series [8], 3%. Besides, in series [6], the % trimer stood at 2%. Also, the Kd in series [7] was determined as 53 µM.

In the case of “SBD641 (384-641), full-length substrate-binding domain of human Hsp70 with the interdomain linker”, the “% monomer” value was “a dramatic increase in the monomeric fraction of the refolded protein compared to the native protein (from 37% to 71%)” with P0DMV8 [9]; 23% in the series on P0DMV8 [2]; 46% with P0DMV8 [3]; “the monomeric fraction increases from 37% to 58% in the presence of peptide” in the series on P0DMV8 [10]; 37% in the series on P0DMV8 [4].

In turn, “SBD641 (384-641), full-length substrate-binding domain of human Hsp70 with the interdomain linker (from UniProt P0DMV8 384-641) (domain or fragment)” gave a % tetramer in series [11] of 2%. Moreover, the figures for the % trimer in series [11] and in series [17] were 12% and 10%, respectively. The fraction of oligomeric species in series [12] was determined as 0.5; in series [13], 0.7. Also, the Kd in series [14] was 5 to 10 µM; in [15], 1 to 10 µM; in series [7] it was 11 µM. Also, the % dimer in [16] was determined as 55%; in series [17], 40%; in series [18], 24%; in series [19], 44%. The % higher-order oligomers in series [16] amounted to 22%; in series [18], 18%. Besides, the figures for the % total oligomers in series [16], in series [17] and in series [19] were 77%, 54% and 63%, respectively.

Regarding full-length human Hsp70 (Hsp70 1A), the % monomer amounted to 93% with P0DMV8 [2], 98% in the series on P0DMV8 [3] and 99% in the series with P0DMV8 [4].

For the substance “full-length human Hsp70 (Hsp70 1A) (from UniProt P0DMV8 1-641) (natural protein)”, the % oligomeric species worked out at 35% in series [20] and 10% in series [21]. In addition, the results for the % dimer in [21], in series [22] and in series [23] were 7%, 2% and 1%, respectively. For the same substance, the % total oligomers in series [21] was found to be 7%; in [22], 2%; in series [23], 1%. In [22], this substance had a % trimer of -0%. For the same substance, in [7], the Kd came out at 9 µM.

For “ΔLSBD641 (394-641), SBD641 of human Hsp70 without the first ten residues of the interdomain linker”, the % monomer in the series on P0DMV8 [2] came out at 86%; in the series with P0DMV8 [3], 92%; in the series with P0DMV8 [4] it was 91%.

As for “ΔLSBD641 (394-641), SBD641 of human Hsp70 without the first ten residues of the interdomain linker (from UniProt P0DMV8 394-641) (domain or fragment)”, the fraction of oligomeric species in series [24] is 0.1. In series [25], this substance displayed a % dimer of 14% and a % total oligomers of 14%. In addition, in series [26], the % dimer is 8%, the % total oligomers stood at 8% and the % trimer was -0%. Further, the Kd in [7] amounted to 8 µM. In series [27], this substance came in with a % dimer of 9% and a % total oligomers of 9%.
